Where no end group is shown, it is not given here. [ ]: non-standard residue; d: D form. Ac6c = NC1(C(=O)O)CCCCC1; Sar = CNCC(=O)O
T1: human angiotensin 2 type 1 receptor (human, UniProt P30556 1-359)
T1 sequence (looked up): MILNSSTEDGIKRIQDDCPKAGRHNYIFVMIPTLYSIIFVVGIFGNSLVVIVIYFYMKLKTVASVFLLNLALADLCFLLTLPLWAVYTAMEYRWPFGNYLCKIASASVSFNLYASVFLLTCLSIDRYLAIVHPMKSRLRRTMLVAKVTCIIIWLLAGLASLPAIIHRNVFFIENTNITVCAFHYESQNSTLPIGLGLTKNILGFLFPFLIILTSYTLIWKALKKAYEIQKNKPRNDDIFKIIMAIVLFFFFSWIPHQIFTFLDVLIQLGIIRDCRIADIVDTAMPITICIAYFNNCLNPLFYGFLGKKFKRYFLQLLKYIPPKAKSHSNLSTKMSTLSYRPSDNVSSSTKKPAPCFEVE

T2: rat angiotensin 2 type 1 receptor (rat, UniProt P25095 1-359)
T2 sequence (looked up): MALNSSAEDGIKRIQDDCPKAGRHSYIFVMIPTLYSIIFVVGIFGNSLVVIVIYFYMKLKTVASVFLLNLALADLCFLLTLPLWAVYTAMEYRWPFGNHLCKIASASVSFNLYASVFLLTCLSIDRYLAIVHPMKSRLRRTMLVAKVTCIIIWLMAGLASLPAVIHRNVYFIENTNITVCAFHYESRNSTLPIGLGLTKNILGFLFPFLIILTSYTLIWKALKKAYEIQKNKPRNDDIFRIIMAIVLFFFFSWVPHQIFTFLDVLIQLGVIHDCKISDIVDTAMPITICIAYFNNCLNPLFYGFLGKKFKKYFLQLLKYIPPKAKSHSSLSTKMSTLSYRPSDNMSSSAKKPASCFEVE


Biological target: T1, human angiotensin 2 type 1 receptor
Assay: cell-based or functional assay

IP1 G-protein assay EC50 [nM] | IP1 G-protein assay pEC50 | IP1 G-protein assay Span | Binder
> 1.3 | > 9.2 |  | [Sar]RVY[Ac6c]HPS [SEQ ID NO: 15 (Sar-Arg-Val-Tyr-cyHex-His-Pro-Ser)]
< 1.3 | < 9.2 | < 103 | [Sar]RVY[Ac6c]HPF [SEQ ID NO: 17 (Sar-Arg-Val-Tyr-cyHex-His-Pro-Phe)]
> 1.3 | < 9.2 | < 103 | [Sar]RVY[Ac6c]HPI [SEQ ID NO: 11 (Sar-Arg-Val-Tyr-cyHex-His-Pro-Ile)]
5 | < 9.2 | < 103 | [Sar]RVYPHPM [SEQ ID NO: 9 (Sar-Arg-Val-Tyr-Pro-His-Pro-Met)]
1.3 | < 9.2 | < 103 | [Sar]RVYPHPF [SEQ ID NO: 10 (Sar-Arg-Val-Tyr-Pro-His-Pro-Phe)]
> 1.3 | < 9.2 | < 103 | [Sar]RVY[Ac6c]HPM [SEQ ID NO: 16 (Sar-Arg-Val-Tyr-cyHex-His-Pro-Met)]
> 10000 | > 9.2 |  | [Sar]RVYPHPT [SEQ ID NO: 7 (Sar-Arg-Val-Tyr-Pro-His-Pro-Thr)]
> 1.3 | < 9.2 | < 103 | [Sar]RVY[Ac6c]HPL [SEQ ID NO: 12 (Sar-Arg-Val-Tyr-cyHex-His-Pro-Leu)]
6310 | < 9.2 | < 103 | [Sar]RVYPHPS [SEQ ID NO: 8 (Sar-Arg-Val-Tyr-Pro-His-Pro-Ser)]
> 1.3 | > 9.2 |  | [Sar]RVY[Ac6c]HPT [SEQ ID NO: 14 (Sar-Arg-Val-Tyr-cyHex-His-Pro-Thr)]

Biological target: T2, rat angiotensin 2 type 1 receptor
Assay: cell-based or functional assay

IP1 G-protein assay EC50 [nM] | IP1 G-protein assay Span | IP1 G-protein assay pEC50 | Binder
> 0.6 | < 104 | < 9.2 | [Sar]RVY[Ac6c]HPS [SEQ ID NO: 15 (Sar-Arg-Val-Tyr-cyHex-His-Pro-Ser)]
> 0.6 | > 104 | < 9.2 | [Sar]RVY[Ac6c]HPF [SEQ ID NO: 17 (Sar-Arg-Val-Tyr-cyHex-His-Pro-Phe)]
> 0.6 |  | > 9.2 | [Sar]RVY[Ac6c]HPI [SEQ ID NO: 11 (Sar-Arg-Val-Tyr-cyHex-His-Pro-Ile)]
> 0.6 | < 104 | < 9.2 | [Sar]RVYPHPM [SEQ ID NO: 9 (Sar-Arg-Val-Tyr-Pro-His-Pro-Met)]
> 0.6 | < 104 | < 9.2 | [Sar]RVYPHPF [SEQ ID NO: 10 (Sar-Arg-Val-Tyr-Pro-His-Pro-Phe)]
> 0.6 | < 104 | < 9.2 | [Sar]RVY[Ac6c]HPM [SEQ ID NO: 16 (Sar-Arg-Val-Tyr-cyHex-His-Pro-Met)]
> 0.6 |  | > 9.2 | [Sar]RVYPHPT [SEQ ID NO: 7 (Sar-Arg-Val-Tyr-Pro-His-Pro-Thr)]
> 0.6 | < 104 | < 9.2 | [Sar]RVY[Ac6c]HPL [SEQ ID NO: 12 (Sar-Arg-Val-Tyr-cyHex-His-Pro-Leu)]
> 0.6 |  | > 9.2 | [Sar]RVYPHPS [SEQ ID NO: 8 (Sar-Arg-Val-Tyr-Pro-His-Pro-Ser)]
> 0.6 |  | > 9.2 | [Sar]RVY[Ac6c]HPT [SEQ ID NO: 14 (Sar-Arg-Val-Tyr-cyHex-His-Pro-Thr)]

Biological target: T1, human angiotensin 2 type 1 receptor
Assay: cell-based or functional assay
Remark: another data set of the same source

beta-arrestin2 assay EC50 [nM] | beta-arrestin2 assay Span | beta-arrestin2 assay pEC50 | Binder
> 3.2 | < 101 | < 8.5 | [Sar]RVY[Ac6c]HPS [SEQ ID NO: 15 (Sar-Arg-Val-Tyr-cyHex-His-Pro-Ser)]
> 3.2 | > 101 | < 8.5 | [Sar]RVY[Ac6c]HPF [SEQ ID NO: 17 (Sar-Arg-Val-Tyr-cyHex-His-Pro-Phe)]
> 3.2 | < 101 | < 8.5 | [Sar]RVY[Ac6c]HPI [SEQ ID NO: 11 (Sar-Arg-Val-Tyr-cyHex-His-Pro-Ile)]
> 3.2 | < 101 | < 8.5 | [Sar]RVYPHPM [SEQ ID NO: 9 (Sar-Arg-Val-Tyr-Pro-His-Pro-Met)]
> 3.2 | < 101 | < 8.5 | [Sar]RVYPHPF [SEQ ID NO: 10 (Sar-Arg-Val-Tyr-Pro-His-Pro-Phe)]
> 3.2 | < 101 | < 8.5 | [Sar]RVY[Ac6c]HPM [SEQ ID NO: 16 (Sar-Arg-Val-Tyr-cyHex-His-Pro-Met)]
> 3.2 | < 101 | < 8.5 | [Sar]RVYPHPT [SEQ ID NO: 7 (Sar-Arg-Val-Tyr-Pro-His-Pro-Thr)]
> 3.2 | < 101 | < 8.5 | [Sar]RVY[Ac6c]HPL [SEQ ID NO: 12 (Sar-Arg-Val-Tyr-cyHex-His-Pro-Leu)]
> 3.2 | < 101 | < 8.5 | [Sar]RVYPHPS [SEQ ID NO: 8 (Sar-Arg-Val-Tyr-Pro-His-Pro-Ser)]
> 3.2 | < 101 | < 8.5 | [Sar]RVY[Ac6c]HPT [SEQ ID NO: 14 (Sar-Arg-Val-Tyr-cyHex-His-Pro-Thr)]

Biological target: T2, rat angiotensin 2 type 1 receptor
Assay: cell-based or functional assay
Remark: another data set of the same source

beta-arrestin2 assay EC50 [nM] | beta-arrestin2 assay Span | beta-arrestin2 assay pEC50 | Binder
> 3.2 | < 105 | < 8.5 | [Sar]RVY[Ac6c]HPS [SEQ ID NO: 15 (Sar-Arg-Val-Tyr-cyHex-His-Pro-Ser)]
3.2 | < 105 | 8.5 | [Sar]RVY[Ac6c]HPF [SEQ ID NO: 17 (Sar-Arg-Val-Tyr-cyHex-His-Pro-Phe)]
> 3.2 | < 105 | < 8.5 | [Sar]RVY[Ac6c]HPI [SEQ ID NO: 11 (Sar-Arg-Val-Tyr-cyHex-His-Pro-Ile)]
> 3.2 | < 105 | < 8.5 | [Sar]RVYPHPM [SEQ ID NO: 9 (Sar-Arg-Val-Tyr-Pro-His-Pro-Met)]
3.2 | > 105 | 8.5 | [Sar]RVYPHPF [SEQ ID NO: 10 (Sar-Arg-Val-Tyr-Pro-His-Pro-Phe)]
> 3.2 | < 105 | < 8.5 | [Sar]RVY[Ac6c]HPM [SEQ ID NO: 16 (Sar-Arg-Val-Tyr-cyHex-His-Pro-Met)]
> 3.2 | < 105 | < 8.5 | [Sar]RVYPHPT [SEQ ID NO: 7 (Sar-Arg-Val-Tyr-Pro-His-Pro-Thr)]
> 3.2 | < 105 | < 8.5 | [Sar]RVY[Ac6c]HPL [SEQ ID NO: 12 (Sar-Arg-Val-Tyr-cyHex-His-Pro-Leu)]
> 3.2 | < 105 | < 8.5 | [Sar]RVYPHPS [SEQ ID NO: 8 (Sar-Arg-Val-Tyr-Pro-His-Pro-Ser)]
> 3.2 | < 105 | < 8.5 | [Sar]RVY[Ac6c]HPT [SEQ ID NO: 14 (Sar-Arg-Val-Tyr-cyHex-His-Pro-Thr)]
